From patent publication US20230168249A1 (ACADEMIA SINICA, published 2023)
Read-outs that look alike come from different tables or passages of the source.

B1: antibody #21 (antibody, V domains shown)
VH: EVQLVESGGGLVQPGGSLRLSCAASGFTINNGSIHWVRQAPGKGLEWVAWIWPFGGYTYYADSVKGRFTISADTSKNTAYLQMNSLRAEDTAVYYCARGSYGYDYWGQGTLVTVSS
VL: DIQMTQSPSSLSASVGDRVTITCRASQDVGSNVAWYQQKPGKAPKLLIFSAPFLYSGVPSRFSGSGSGTDFTLTISSLQPEDFATYYCQQFYDWPLTFGQGTKVEIKR
notes: also called D21
B2: antibody #22 (antibody, V domains shown)
VH: EVQLVESGGGLVQPGGSLRLSCAASGFTISSGSIHWVRQAPGKGLEWVASIWPFGGYTSYADSVKGRFTISADTSKNTAYLQMNSLRAEDTAVYYCARGSFGSDYWGQGTLVTVSS
VL: DIQMTQSPSSLSASVGDRVTITCRASQDVDDNVAWYQQKPGKAPKLLISSSSGLYSGVPSRFSGSGSGTDFTLTISSLQPEDFATYYCQQSYNGPITFGQGTKVEIKR
notes: also called D22
B3: antibody #36 (antibody, V domains shown)
VH: EVQLVESGGGLVQPGGSLRLSCAASGFTINRYSIHWVRQAPGKGLEWVAGIWPFGGDTTYADSVKGRFTISADTSKNTAYLQMNSLRAEDTAVYYCARGATSHDYWGQGTLVTVSS
VL: DIQMTQSPSSLSASVGDRVTITCRASQDVTTTVAWYQQKPGKAPKLLINKGSWLYSGVPSRFSGSGSGTDFTLTISSLQPEDFATYYCQQYNKWPLTFGQGTKVEIKR
notes: also called IgG1#36; D36
B4: antibody #48 (antibody, V domains shown)
VH: EVQLVESGGGLVQPGGSLRLSCAASGFTISNFGIHWVRQAPGKGLEWVAGIWPYGGYTFYADSVKGRFTISADTSKNTAYLQMNSLRAEDTAVYYCARFDSYSYSGYMDYWGQGTLVTVSS
VL: DIQMTQSPSSLSASVGDRVTITCSGSSSNIGDNNVYWYQQKPGKAPKLLIFGPAYLYSGVPSRFSGSGSGTDFTLTISSLQPEDFATYYCAAGYSDNNGITFGQGTKVEIKR
notes: also called C48
B5: antibody #7 (antibody, V domains shown)
VH: EVQLVESGGGLVQPGGSLRLSCAASGFTIEDRWIHWVRQAPGKGLEWVASIWPMEGLTRYADSVKGRFTISADTSKNTAYLQMNSLRAEDTAVYYCARGYYGFDYWGQGTLVTVSS
VL: DIQMTQSPSSLSASVGDRVTITCRASQDVEARVAWYQQKPGKAPKLLIFTSTRLYSGVPSRFSGSGSGTDFTLTISSLQPEDFATYYCQQIMPLPTTFGQGTKVEIKR
notes: also called C07
B6: antibody #33 (antibody, V domains shown)
VH: EVQLVESGGGLVQPGGSLRLSCAASGFTINNGGIHWVRQAPGKGLEWVAGIWPFWGSTSYADSVKGRFTISADTSKNTAYLQMNSLRAEDTAVYYCARGSYGFDYWGQGTLVTVSS
VL: DIQMTQSPSSLSASVGDRVTITCRASQDVYSSVAWYQQKPGKAPKLLIFGSSFLYSGVPSRFSGSGSGTDFTLTISSLQPEDFATYYCQQYYDWPITFGQGTKVEIKR
notes: also called D33; C33
B7: antibody #11 (antibody, V domains shown)
VH: EVQLVESGGGLVQPGGSLRLSCAASGFTIQDRMIHWVRQAPGKGLEWVASILPFLGATWYADSVKGRFTISADTSKNTAYLQMNSLRAEDTAVYYCARSWFSPFDYWGQGTLVTVSS
VL: DIQMTQSPSSLSASVGDRVTITCRASQDVGGSVAWYQQKPGKAPKLLISFPGGLYSGVPSRFSGSGSGTDFTLTISSLQPEDFATYYCQQYFSWPITFGQGTKVEIKR
notes: also called D11; C11

How the values were obtained:
MERS-CoV-N protein = target: T1, MERS-CoV-N protein (MERS-CoV, UniProt K9N4V7 1-411); experiment: ELISA, IgG1 on recombinant N protein
T1 construct: also called MERS-CoV nucleocapsid protein

HCoV-OC43-N protein = target: T2, HCoV-OC43-N protein (HCoV-OC43, UniProt P33469 1-448); experiment: ELISA, IgG1 on recombinant N protein
T2 construct: also called OC43-CoV N
T2 chain: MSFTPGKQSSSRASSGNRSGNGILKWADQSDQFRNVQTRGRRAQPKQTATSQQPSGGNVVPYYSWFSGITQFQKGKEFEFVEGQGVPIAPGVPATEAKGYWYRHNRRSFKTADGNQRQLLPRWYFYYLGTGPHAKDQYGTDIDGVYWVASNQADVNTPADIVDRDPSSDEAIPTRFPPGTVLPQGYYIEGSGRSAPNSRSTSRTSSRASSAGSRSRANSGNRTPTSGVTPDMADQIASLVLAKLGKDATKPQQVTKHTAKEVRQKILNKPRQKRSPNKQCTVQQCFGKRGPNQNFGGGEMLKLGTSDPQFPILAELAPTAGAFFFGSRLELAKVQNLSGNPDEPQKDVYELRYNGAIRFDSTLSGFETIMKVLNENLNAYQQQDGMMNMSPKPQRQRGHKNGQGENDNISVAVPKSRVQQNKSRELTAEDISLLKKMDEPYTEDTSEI

HCoV-NL63-N protein = target: T3, HCoV-NL63-N protein (HCoV-NL63, UniProt Q6Q1R8 1-377); experiment: ELISA, IgG1 on recombinant N protein
T3 construct: also called NL63-CoV N
T3 sequence: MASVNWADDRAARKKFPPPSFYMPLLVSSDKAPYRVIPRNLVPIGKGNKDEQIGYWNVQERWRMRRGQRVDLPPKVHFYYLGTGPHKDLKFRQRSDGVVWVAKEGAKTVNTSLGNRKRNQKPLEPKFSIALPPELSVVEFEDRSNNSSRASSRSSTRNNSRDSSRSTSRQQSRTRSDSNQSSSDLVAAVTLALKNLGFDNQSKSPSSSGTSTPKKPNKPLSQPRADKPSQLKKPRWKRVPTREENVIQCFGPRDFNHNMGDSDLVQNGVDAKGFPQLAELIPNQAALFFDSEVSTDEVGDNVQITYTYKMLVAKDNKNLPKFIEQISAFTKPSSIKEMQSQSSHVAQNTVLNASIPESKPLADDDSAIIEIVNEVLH

HCoV-HKU1-N protein = target: T4, HCoV-HKU1-N protein (HCoV-HKU1, UniProt Q5MQC6 1-441); experiment: ELISA, IgG1 on recombinant N protein
T4 construct: also called HKU1-CoV N
T4 chain: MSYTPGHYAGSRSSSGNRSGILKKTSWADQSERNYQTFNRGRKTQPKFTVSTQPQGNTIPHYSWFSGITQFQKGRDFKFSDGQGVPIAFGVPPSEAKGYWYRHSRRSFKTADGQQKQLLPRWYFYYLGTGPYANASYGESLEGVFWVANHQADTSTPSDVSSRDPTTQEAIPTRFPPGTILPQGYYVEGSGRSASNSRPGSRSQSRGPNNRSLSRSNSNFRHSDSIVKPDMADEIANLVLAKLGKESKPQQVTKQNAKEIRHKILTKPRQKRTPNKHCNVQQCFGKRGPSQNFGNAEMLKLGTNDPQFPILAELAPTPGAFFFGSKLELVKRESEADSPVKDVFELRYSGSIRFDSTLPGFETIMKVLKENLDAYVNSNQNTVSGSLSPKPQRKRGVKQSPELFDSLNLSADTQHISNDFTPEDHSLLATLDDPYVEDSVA

SARS-CoV-1-N protein = target: T5, SARS-CoV-1-N protein (SARS-CoV-1, UniProt P59595 1-422); experiment: ELISA, IgG1 on recombinant N protein
T5 construct: also called SARS-CoV N; SARS-CoV-N

SARS-CoV-2-N protein [1] = target: T6, SARS-CoV-2-N protein (SARS-CoV-2, UniProt P0DTC9 1-419); experiment: ELISA, IgG1 on recombinant N protein
T6 construct: also called nucleocapsid protein of SARS-CoV-2

SARS-CoV-2-N protein [2] = target: T6, SARS-CoV-2-N protein

Binder	EC50 (MERS-CoV-N protein)	EC50 (HCoV-OC43-N protein)	EC50 (HCoV-NL63-N protein)	EC50 (HCoV-HKU1-N protein)	EC50 (SARS-CoV-1-N protein)	EC50 (SARS-CoV-2-N protein [1])	EC50 (SARS-CoV-2-N protein [2])
B1	> 2 mg/L	> 2 mg/L	> 2 mg/L	> 2 mg/L	0.0214 mg/L	0.018 mg/L	–
B2	> 2 mg/L	> 2 mg/L	> 2 mg/L	> 2 mg/L	0.0039 mg/L	0.0044 mg/L	–
B3	> 2 mg/L	> 2 mg/L	> 2 mg/L	> 2 mg/L	0.002 mg/L	0.0008 mg/L	0.0288 mg/L
B4	> 2 mg/L	> 2 mg/L	> 2 mg/L	> 2 mg/L	0.0186 mg/L	0.0467 mg/L	0.0207 mg/L
B5	> 2 mg/L	> 2 mg/L	> 2 mg/L	> 2 mg/L	0.0037 mg/L	0.0037 mg/L	0.018 mg/L
B6	> 2 mg/L	> 2 mg/L	> 2 mg/L	> 2 mg/L	0.0016 mg/L	0.0014 mg/L	0.0255 mg/L
B7	> 2 mg/L	> 2 mg/L	> 2 mg/L	> 2 mg/L	0.0069 mg/L	–	–
